These are literature values, as cited in article PMC8227800.

For this data set, the target named is Cdh2 (Danio rerio) (UniProt Q90275).

As to Cdh2 (from UniProt Q90275), the Kd (as a rule, a measure of binding affinity in units of concentration) was 200 nM.
